Here are results for two substances from US7223734B2, “Plasma protein-binding ligands” (The American National Red Cross, priority 2002, dated 2007).

Where “and” joins values, the source holds several entries; their conditions need not be identical. Equal values may be shown once. Non-standard residues stand in square brackets, D forms with d. No end group written: not given here.

Assay [1] concerns the target T1, API (Homo sapiens, UniProt P01009).
T1 construct: from tissue; host or cells: human plasma (whole, fibrinogen-depleted or F1-Apo-depleted)
As to the kind of experiment: Preparation of fibrinogen- and Apo-A1-depleted plasma: API in flow-through (Example 5). Particulars: after chromatography on the named resin. Format: binding. As to the method:
(§1) Toyopearl AF Amino 650M resin displaying a peptide consisting essentially of the amino acid sequence D-ARQFDF (SEQ ID NO: 20) was suspended for 2 hours in 20% methanol. After washing with distilled water, the resin was packed into an Omni column (column volume (CV)=10 ml; diameter 1.5 cm; CF 1.77 cm^2) and equilibrated in 0.14 M NaCl, 0.020 M sodium citrate, pH 7.0 (EQ buffer). Fifty milliliters of filtered plasma (0.80 mm, Nalgene CN, Cat. No. 380-0080; 0.45 μm, Corning CA, Cat. No. 431155; 0.20 μm, Nalgene PES, Cat. No. 165-0020) were loaded on the Omni columns at a linear velocity (LV) of 50 cm/H (flow rate (FR)=1.5 ml/min; residence time (RT)=6.7 minutes). The flow-through was collected in column volumes. After pooling fibrinogen-depleted plasma (50 ml), the flow-through was loaded onto a column comprising a resin displaying an Apo-A1 lipoprotein-binding ligand (D-WWLHIN (SEQ ID NO: 33)), as described below. The fibrinogen-binding column was washed with 12 CVs of EQ buffer and the fibrinogen eluted with 10 CVs of 0.3 M glycine, 0.5 M NaCl, pH 9.0. The column was regenerated with 10 CVs of 2% Sarkosyl, pH 8.0, followed by 10 CVs of 2.0 M guanidine (GuHCl). After washing with 5 CVs of distilled water, the column was further cleaned with 6 CVs of 30% ethanol and 6 CVs of 70% ethanol containing 2% acetic acid. […]

Assay [2] has as its system Apo-A1 lipoprotein. As to the kind of experiment: Preparation of fibrinogen- and Apo-A1-depleted plasma: Apo-A1 in flow-through (Example 5). In kind it is binding, human. Particulars: after treatment with the named resin. As to the method: as §1
For assay [3], the target named is T2, fibrinogen (Homo sapiens, UniProt P02671+P02675+P02679).
T2 construct: from tissue; host or cells: human plasma
T2 sequence (P02671 20-629 limits assumed): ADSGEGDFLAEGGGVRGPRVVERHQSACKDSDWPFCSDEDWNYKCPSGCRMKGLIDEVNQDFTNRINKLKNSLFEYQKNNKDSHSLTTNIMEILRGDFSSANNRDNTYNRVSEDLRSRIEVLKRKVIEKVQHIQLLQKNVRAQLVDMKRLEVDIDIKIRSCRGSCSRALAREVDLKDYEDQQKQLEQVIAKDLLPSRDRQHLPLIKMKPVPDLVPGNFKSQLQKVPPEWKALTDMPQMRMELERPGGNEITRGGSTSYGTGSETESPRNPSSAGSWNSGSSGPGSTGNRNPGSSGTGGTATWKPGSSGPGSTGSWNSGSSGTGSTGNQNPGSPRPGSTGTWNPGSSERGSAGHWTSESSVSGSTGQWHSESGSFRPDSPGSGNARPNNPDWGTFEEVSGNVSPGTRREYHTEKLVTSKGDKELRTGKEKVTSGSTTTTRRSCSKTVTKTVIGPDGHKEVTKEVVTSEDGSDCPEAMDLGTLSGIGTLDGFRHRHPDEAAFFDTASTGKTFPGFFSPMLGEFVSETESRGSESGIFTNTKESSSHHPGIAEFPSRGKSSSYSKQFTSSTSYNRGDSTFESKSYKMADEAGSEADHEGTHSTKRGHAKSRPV
T2 sequence (P02675 31-491): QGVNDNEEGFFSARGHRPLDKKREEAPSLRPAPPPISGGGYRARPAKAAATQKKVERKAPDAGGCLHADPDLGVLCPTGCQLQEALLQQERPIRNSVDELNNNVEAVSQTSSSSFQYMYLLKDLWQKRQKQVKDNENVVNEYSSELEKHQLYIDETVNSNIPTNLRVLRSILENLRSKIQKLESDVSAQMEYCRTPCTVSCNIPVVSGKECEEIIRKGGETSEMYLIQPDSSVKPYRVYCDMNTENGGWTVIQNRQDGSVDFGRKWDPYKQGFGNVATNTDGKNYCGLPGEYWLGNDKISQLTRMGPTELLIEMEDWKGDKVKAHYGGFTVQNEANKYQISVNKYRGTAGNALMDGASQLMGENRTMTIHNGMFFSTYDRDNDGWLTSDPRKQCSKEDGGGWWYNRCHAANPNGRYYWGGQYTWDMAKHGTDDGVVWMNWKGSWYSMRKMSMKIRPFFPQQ
T2 sequence (P02679 27-433 limits assumed): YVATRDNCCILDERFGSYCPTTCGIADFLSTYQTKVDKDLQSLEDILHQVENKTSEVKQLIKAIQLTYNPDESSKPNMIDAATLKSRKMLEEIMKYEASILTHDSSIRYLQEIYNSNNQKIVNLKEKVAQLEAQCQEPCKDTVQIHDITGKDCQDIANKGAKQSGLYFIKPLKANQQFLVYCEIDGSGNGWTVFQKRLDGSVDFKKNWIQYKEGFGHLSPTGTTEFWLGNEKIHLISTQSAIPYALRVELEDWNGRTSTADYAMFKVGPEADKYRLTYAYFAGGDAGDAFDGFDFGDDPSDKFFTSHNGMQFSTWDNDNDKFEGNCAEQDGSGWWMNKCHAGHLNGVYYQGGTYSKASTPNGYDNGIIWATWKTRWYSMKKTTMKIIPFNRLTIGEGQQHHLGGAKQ
Put plainly: Preparation of fibrinogen- and Apo-A1-depleted plasma: fibrinogen capture (Example 5). Format: binding. Particulars: nephelometric and clotting analysis. The protocol:
as §1

Assay [4] has as its target T2, fibrinogen. As to the kind of experiment: Purification of fibrinogen from plasma by affinity chromatography on D-ARQFDF resin (Example 2). Format: binding. As to the method: ToyoPearl AF-Amino 650 M resin beads displaying dried D-ARQFDF (SEQ ID NO: 20) peptide via an epsilon amino caproic acid (EACA) spacer were suspended in 20% methanol for a minimum of 2 hours before equilibration in 0.12–0.15 M NaCl, 0.020 M sodium citrate, pH 6.5–7.5. For 2.0–2.1 ml columns, about […] of resin was obtained. The resin was subsequently packed in an Omni Column of 1.0–1.5 cm diameter and evaluated either on an ÄKTAExplorer System or BIO RAD BioLogic LP. Optical density at 280 nm–320 nm and conductivity was constantly monitored during the evaluations. Flow rates were selected according to column size to achieve linear velocities of 30–60 cm/hour and residence times between 5–8 minutes.
All evaluations were performed at room temperature with cryo-rich plasma that had been 0.8 μm and 0.45 μm filtered. A linear velocity (LV) of […] was maintained throughout the experiments. Fifty milliliters of plasma was applied at 1.5 ml/min (RT=6.7) onto 10 ml column (height 5.7 cm, CF=1.77 cm^2) that had been equilibrated with 0.14 M NaCl, 0.020 M sodium citrate, pH 7.0 (EQ buffer). After the column was washed with EQ buffer to baseline, the fibrinogen was eluted with 0.3 M glycine, 0.5 M NaCl at pH 9.0 (10 CV). The column was regenerated with 2% Sarkosyl, 2.0 M guanidine-HCl, 30% ethanol, followed by a 70% ethanol/2% acetic acid mixture and stored in 20% methanol.

In assay [5] the target is T3, albumin (Homo sapiens, UniProt P02768).
T3 construct: from tissue; host or cells: human plasma (fibrinogen-depleted or F1-Apo-depleted)
Put plainly: Albumin recovery in Apo-A1 purification run (Example 4). In kind it is binding. Particulars: load 372 mg. As to the method:
(§2) Apo-A1 lipoprotein purification was accomplished with D-WWLHIN (SEQ ID NO: 33) peptides and several analogs. Indeed, about 100% Apo-A1 lipoprotein depletion from plasma was repeatedly obtained with D-WWLHAN (SEQ ID NO: 56) and D-WWLHIN (SEQ ID NO: […]). Fourteen milliliters of fibrinogen-depleted plasma was loaded onto a 2.3 ml column (CF=0.785 cm^2) at 0.4 ml/min. (LV=30 cm/H; RT=5.8) that had been equilibrated with 0.14 M NaCl, 0.020 M sodium citrate, pH 7.0 (EQ buffer). After the column was washed with EQ buffer to baseline, Apo-A1 lipoprotein was eluted with 2.0 M NaCl, 1% Tween-20, 0.020M sodium citrate, pH 7.0. The column was regenerated with 2.0 M guanidine-HCl, 2% Sarkosyl, and 2% acetic acid and stored in 20% methanol.

The target of assay [6] is T1, API. Put plainly: API recovery in Apo-A1 purification run (Example 4). Format: binding. Particulars: load 10.6 mg. The protocol: as §2
The target in assay [7] is T4, Apo-A1 lipoprotein (Homo sapiens, UniProt P02647).
T4 construct: from tissue; host or cells: human plasma (whole or fibrinogen-depleted)
T4 sequence (P02647 25-267 limits assumed): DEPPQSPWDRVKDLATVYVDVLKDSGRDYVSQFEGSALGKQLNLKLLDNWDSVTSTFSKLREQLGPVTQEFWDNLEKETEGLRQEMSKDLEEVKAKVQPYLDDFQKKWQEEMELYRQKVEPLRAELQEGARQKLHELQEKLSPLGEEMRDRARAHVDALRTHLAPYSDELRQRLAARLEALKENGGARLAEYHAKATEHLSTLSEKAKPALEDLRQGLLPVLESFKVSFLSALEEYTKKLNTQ
Put plainly: Apo-A1 lipoprotein purification from fibrinogen-depleted plasma on peptide resin column (Example 4). Particulars: for removal / depletion of Apo-A1 lipoprotein in flow-through: fibrinogen-depleted plasma, 14 ml on 2.3 ml resin, SDS-PAGE. In kind it is binding. The protocol:
as §2

T1 sequence (P01009 25-418): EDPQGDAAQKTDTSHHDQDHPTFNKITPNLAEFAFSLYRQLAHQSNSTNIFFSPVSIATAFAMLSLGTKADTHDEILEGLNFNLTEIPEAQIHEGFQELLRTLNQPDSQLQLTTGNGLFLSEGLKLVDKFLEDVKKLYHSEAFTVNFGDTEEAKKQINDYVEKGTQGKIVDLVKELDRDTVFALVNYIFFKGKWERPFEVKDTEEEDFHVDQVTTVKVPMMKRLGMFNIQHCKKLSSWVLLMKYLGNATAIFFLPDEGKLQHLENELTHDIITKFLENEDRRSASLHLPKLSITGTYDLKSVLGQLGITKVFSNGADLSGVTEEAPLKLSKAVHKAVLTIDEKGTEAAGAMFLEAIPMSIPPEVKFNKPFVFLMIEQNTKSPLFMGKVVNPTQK

As to “D-ARQFDF ([dA]RQFDF; not fully specified (residues 2, 3, 4, 5, 6, C-terminus))”, the “API recovered in the flow-through” value in assay [1] is 100%. Also, the “Apo-A1 lipoprotein detected in the flow-through” value in assay [2] is given as “Ninety”. Moreover, the fibrinogen captured in assay [3] worked out at 100%. For the same substance, the “Total Fibrinogen” value in assay [4] (Elution, plasma load 51 mg) is 54 mg and 46 mg. Also, the Fibrinogen in assay [4] (Flow thru + Post wash, fibrinogen antigen (nephelometric analysis), plasma load 25 ml, 2.04 mg/ml) is below 0.15 mg/mL. Besides, the “runs with minimal changes in performance, dynamic resin capacity, or purity of fibrinogen eluates” value in assay [4] (resin reuse) is given as “over 15 runs”. The dynamic resin capacity in assay [4] (resin-to-plasma ratios of 1:3.5 to 1:4.5, peptide ligand densities 0.67–0.94 mmol/g resin) was 6–8 g/L of resin.
Turning to “WFLHIN ([dW]FLHIN; not fully specified (residues 2, 3, 4, 5, 6)) [D-WFLHIN]”, in assay [5], the “Albumin Flow Through” value is listed as 386 mg. For the same substance, the “API Flow Through” value in assay [6] stood at 12.5 mg. Also, the “Apo-A1 Elution” value in assay [7] (2.0 M NaCl, 1% Tween-20 eluate, load 12.9 mg) turned out to be 9.1 mg. For the same substance, the “removal / depletion of Apo-A1 lipoprotein in flow-through” value in assay [7] is “Complete Apo-A1 lipoprotein depletion”; in assay [7] (listed as WFLHIN) it was “complete removal”.
